# Source: a protein production outcome set (Wang et al. 2014)
# Assay: label from the status in PepcDB records
# 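Further: failed if final PepcDB status was selected cloned or expressed and not failed if soluble or beyond.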
row,Sequence,protein production
1,MLKERLKAFFSADSVFTLIFALFFLTSFKKPLTQVLLIVLMVFLFFRCYFQASLKETFAINHLKTMSFKWLTLAFLGVFLSIFPNMFNMHDSQTFRYNLFALNMSLTYACGALCLLFASCLRIKLNQKILFYSMAVANFINGLLSLVQKIYFNMPRAQGFSTVKEYVVLVSVSILGCYIYALYSHNQKEKLFFTLSVFVGFLVVILSATRSATIAFVITFLILSCFILYAKKSLKPLGYMVVVSLILSALYVGSNALEKKGAIEQSRVQNQSFEEDLKRYAKKDADSSIGWRLERWKEALTVLRLRPFFGMAASEKCQRLEEILSLSKSYRAKDLILCYERYDNQIIHILATRGIIGFLIWLFFLLVIVKIFWSGIKQNSLISFFILMTLAFYLIFGIGFDPFDFFITGSFFVGMIMMAVFLKKDKSAF,failed
2,MLKFNKVFMYITASALSVSLWTCTSFAQQNKTGVTTASMLNMRENPSTSTKIIDQIPNGTKVDIIETSNGWYKISYNGKTGWVYGSYVKVTETPKLTVTDETILATLNKGSTGNSSTNSSTNNSAVNNSSSQVVDETIQKPAQNAASGENTENTVVKTGIVKASALNVRQGPGTSYSIINQLSNGAKVNIIKEESGWYQIKLANGSTGWVSGTYVNVNTTIASRGGLSENSAPAASNNSDVSGVRQQVVEYAKKFLGVKYVYGGNSPSQGFDCSGFVKYVFSNFGINLERVAASQAKQGTWVSKDQLLPGDLVFFDTDGGHNYINHSGIYIGDGKFIHASSGSGKKSVVISDLTSGFYANTYMTARRVLN,failed
3,MLKGKVALVTGASRGIGRAIAKRLANDGALVAIHYGNRKEEAEETVYEIQSNGGSAFSIGANLESLHGVEALYSSLDNELQNRTGSTKFDILINNAGIGPGAFIEETTEQFFDRMVSVNAKAPFFIIQQALSRLRDNSRIINISSAATRISLPDFIAYSMTKGAINTMTFTLAKQLGARGITVNAILPGFVKTDMNAELLSDPMMKQYATTISAFNRLGEVEDIADTAAFLASPDSRWVTGQLIDVSGGSCL,not failed
4,MLKGKYTKIEKVNGVEREYLITDKYGITIGRIFIVDLNKDNRFCMFRMKIYKQGKSINTYIKEILSVFMEFLFKSNDINKVNIIVDEEVSTQPFVELGFAFEGIINKSIIEKNVLKDEFLFGMDYKNYNSDRINVFKLYGKSITLKVLTPEDAENMLQYYIKNKEHLKPFEPEREESFYTFEAQKQMLIENYKQFINGEGTNFGIYKDAKLIGKIQISGTIYGVFKSAIIGYSIDKDYQGKGYMKDALRVAEAYAFNVMNLHRIEASALVDNLRSQNVLIGCGFEKLGINKNYLFINGRWQDHITFYKTNNN,failed
5,MLKGPLKGCLNMSKKVIVIAGTTGVGKSQLSIQLAQKFNGEVINSDSMQVYKDIPIITNKHPLQEREGIPHHVMNHVDWSEEYYSHRFETECMNAIEDIHRRGKIPIVVGGTHYYLQTLFNKRVDTKSSERKLTRKQLDILESTDPDVIYNTLVKCDPDIATKYHPNDYRRVQRMLEIYYKTGKKPSETFNEQKITLKFDTLFLWLYSKPEPLFQRLDDRVDDMLERGALQEIKQLYEYYSQNKFTPEQCENGVWQVIGFKEFLPWLTGKTDDNTVKLEDCIERMKTRTRQYAKRQVKWIKKMLIPDIKGDIYLLDATDLSQWDTNASQRAIAISNDFISNRPIKQERAPKALEELLSKGETTMKKLDDWTHYTCNVCRNADGKNVVAIGEKYWKIHLGSRRHKSNLKRNTRQADFEKWKINKKETVE,failed
6,MLKHLDRSKKGKVARSFLQAISKDEAVAPPLRVVQIEGLAVLKIIKHCKEFSPTLVTGQLLGLDVGSVLEVTNCFPFPVRDDDEEIEADGANYQLEMMRCLREVNVDNNTVGWYQSTVLGSYQTVELIETFMNYQENIKRCVCIIYDPSKADLGVLALKALKLSDSFMELYRGGNFTGEKLREKNFSWMDIFEEIPIKVSNSALVSAFMTELETDTPVSQGDYDRLHSSTTPFLENNMEFLIKCMDDLSMEQQKFQYYYRNLSRQQAQQQAWLQKRRTENMARKSAGEEPLPEEDPSNPIFKAIPEPSRLESFLITNQVSNFCGQINGVAGQNFSRLYLTKALHDN,failed
7,MLKIFSTQLSGYFSRVSQKEEMNIEDSARLLAQALVGEGFIYLHGTNEMEGVVAEALFGAEPMKQAKRLFENGKEVEVTSADRVLLISRFSTDEEVVAIAKKLQADGHSIVGISAIQEGNESLEQYTDVHIDTKLLKGLIPDDEGNRYGFPSLMIALFAYHGIKFTIDEMLNEY,not failed
8,MLKILKRIVQDVTAASDLKEALGILVQRINTAINAEAVSVYLIDNKNAEYVLIATEGLNKQAEFRVRIALDCGLIGLIGRREEPINIENAPSHPDFYHNPLIGEDHLNAFLGVPIIQHRKLYGVLVVQQLEQRYFDDAEESFLITLAAQLGGIIAHAEATGELAELTQ,failed
9,MLKKEYLKNPYLVLFAMIILAYVFSVLCRFYWIWWASEFNEYFFNNQLMIISNDGYAFAEGARDMIAGFHQPNDLSYYGSSLSTLTYWLYKITPFSFESIILYMSTFLSSLVVIPIILLANEYKRPLMGFVAALLASVANSYYNRTMSGYYDTDMLVIVLPMFILFFMVRMILKKDFFSLIALPLFIGIYLWWYPSSYTLNVALIGLFLIYTLIFHRKEKIFYIAVILSSLTLSNIAWFYQSAIIVILFALFALEQKRLNFMIIGILGSATLIFLILSGGVDPILYQLKFYIFRNDESANLTQGFMYFNVNQTIQEVENVDFSEFMRRISGSEIVFLFSLFGFVWLLRKHKSMIMALPILVLGFLALKGGLRFTIYSVPVMALGFGFLLSEFKAILVKKYSQLTSNVCIVFATILTLAPVFIHIYNYKAPTVFSQNEASLLNQLKNIANREDYVVTWWDYGYPVRYYSDVKTLVDGGKHLGKDNFFPSFALSKDEQAAANMARLSVEYTEKSFYAPQNDILKSDILQAMMKDYNQSNVDLFLASLSKPDFKIDTPKTRDIYLYMPARMSLIFSTVASFSFINLDTGVLDKPFTFSTAYPLDVKNGEIYLSNGVVLSDDFRSFKIGDNVVSVNSIVEINSIKQGEYKITPIDDKAQFYIFYLKDSAIPYAQFILMDKTMFNSAYVQMFFLGNYDKNLFDLVINSRDAKVFKLKI,failed
10,MLKKIDDSESLLDTAALAPLQRFVERECRLLDEQRFEEWLALYLPEATYWAPATRDNPDPDSQVSLFWDDKETMQTRVQRLLHPEIHSQIPASVTVRLTSNFRAAVAPGGEKDAYQVECRFIMVEDRLGSPRQQFAGTFNYLLVQNGAAFRIRQKRVDLTNCDHAFHTLTQPF,not failed
11,MLKSKIKEEYVQMDQVDWKPFPAAFSTGGIRWKLLHVSPEMGSWTAIFDCPAGSSFAAHVHVGPGEYFLTKGKMDVRGGKAAGGDTAIAPGYGYESANARHDKTEFPVASEFYMSFLGPLTFVKPDGSPIAVIGWEDAQGAWAA,not failed
12,MLKTTISPIFSSFTGKPKCSSKLFFRAFSKVVLQDTPPSARRNASTNLTTLHKGPPTSAYVHLPFCRKRCHYCDFPILALGMSSSSARPSNVYEEGKEDDPRITNYVNLLVREIKATRTDFDTNPNLETVFFGGGTPSLVPPKLVSLILETLSLNFGLSPDAEISMEMDPGTFDGQKLKDLMKLGVNRVSLGVQAFQDELLKACGRAHGVSQVYEAIEFVKECGVENWSMDLISSLPHQTLEMWEESLRLAIESQPNHVSVYDLQVEQGTKFGNLYTPGQSPLPSETQSAEFYKTASSMLRGAGYEHYEVSSYSRDGFKCKHNLIYWKNKPFYAFGLGSASYVGGLRFSRPRRLKEYTNYVADLENGAANWCGNGDVDLKDVATDILMLSFRTSKGLELKEFGEAFGSEVVKSICKVYEPYVESGHIVCLDDMRSEVMIDEFKTLVANDEVKIEDHVRYLRLKDPDGFLLSNELISLSFGVVAP,failed
13,MLLDEIKRMSYDELKRLAEDIRKRITEVVLKNGGHLASNLGTIELTLALYRVFDPREDAIIWDTGHQAYTHKILTGRDDLFHTIRTFGGLSGFVTRRESPLDWFGTGHAGTSIAAGLGFEKAFELLGEKRHVVVVIGDGALTSGMALEALNQLKNLNSKMKIILNDNGMSISPNVGGLAYHLSKLRTSPIYLKGKKVLKKVLEKTEIGFEVEEEMKYLRDSLKGMIQGTNFFESLGLKYFGPFDGHNIELLEKVFKRIRDYDYSSVVHVVTKKGKGFTAAEENPTKYHSASPSGKPKMLSYSELLGHTLSRVAREDKKIVAITAAMADGTGLSIFQKEHPDRFFDLGITEQTCVTFGAALGLHGMKPVVAIYSTFLQRAYDQIIHDVALQNAPVLFAIDRSGVVGEDGPTHHGLFDINYLLPVPNMKIISPSSPEEFVNSLYTVLKHLDGPVAIRYPKESFYGEVESLLENMKEIDLGWKILKRGREAAIIATGTILNEVLKIPLDVTVVNALTVKPLDTAVLKEIARDHDLIITVEEAMKIGGFGSFVAQRLQEMGWQGKIVNLGVEDLFVPHGGRKELLSMLGLDSEGLTKTVLTYIKARSREGKV,failed
14,MLLEPLKQLKQADARLNMTQGVLEGVVGEELGVLPGMDSIFSMLELERLVGFFRQATRKNHKGKPFDVIIYDGISTEETLRMIGLSSKTRLYAKYLRSLAEKTDLGRLTSPSIMRFVDESMNINSNKSPFDGMTSPAMWDTLERFLETGASAWRDPERFRSFLVMDPNNPMSVKAALRYWGCTVQAGSHVSGAFAISSSHLTSQIPKADFVPLPFASASVPFTITGLDWDKILLDQANSSIRELLSETVSHGTSLTQTVMFDTAKKLVTLFMPGFEKSEIKLYQYRGGSELLIEAGDQRRVIHLPSQIQGKVGGAKFVDRSLIVTMR,failed
15,MLLFWLEFIGIFIAIFVSAELLAKGADELEDFLGQGITGGIILGFLTALPETIFVIVASLEGSFDVALGSAIGGNVLLFTLGIGLVGVFYAFKWRTALQISSEYSVENVFLVLTTIGMLLVLIYGKLNIISGLLLILIYVIYVVYRVAKFRREGMEREKGNLMKPVGFIIAGGVLLVVFSHYFVEYINEIAIMFNVPAIWLSLVIAPIAGELEEKISAFRLVLMSKDGGSLSILSFVGSKIENATVLLGIIGIFTDYELQQALPEYASSLIANMIALYVLFDKRLKTFESVILIGVYVIIVILSFYL,failed
16,MLLFWVEFIGTFIGLFISAELIAKGADELEEVLGQGITGGILLGFITALPETIFVIIASLGGSLDVAFGSAIGGNILLFTVGAGLVGIVYFWKWKNNLVMDQEYQVENKFLIISTVALVLITLYSKLNVIAGVCLILIYVYYVIYRLRKFKRDKPIAKKEVDYVKISIFMVVGAILLIILSHYFVEQLDQISLSFGIPAVWISLVLSPIAGELEEKISAFRLITLSKKGGSLSLLSFVGSKIENNTVLLGIIGLFGDYSLRPVIPEMVSLILVNVSVLRVLFDRKLTVLESSLLIIAYAVIIIALYYL,failed
17,MLLGSCWRIARGVETVPYPWPKWLPIPVLATTVGVAAVVIGVRQLGLLQPSELSLYDFYVRSQPPRDPDSRILTVLVTEQDIQAQKTWPLPDATVAELLTRLNAASPRAIGLDIFRDLPQPPGHDELQNMIRINPRIIPVCKSPGETVEQPEVPPPPSIPTAQVPERVGFADIPLDSDGVIRRNLFVINNPKAQRCTTPFSFALMLALRYLEQDPSQTIKLDDKGLTLNDVHFPLLTSDAGGYVAVDDRGMQTLLKYRSRTAVGPTVSLTDVLTGRVSEDLIRDRVVLIGVSAPSIKDTFLTPYSGSDAVTQQMPGVVVHGQMVSQFLSAALEGEGPIWYWPVPLVLGWILLWAGVGSILGWWLRQPLWLGGAVVGGIIVLFGGGFGIFVMASGWIPVVPPAIALVLSSVGMVGYVSYQAQQEQKSFREKVQEQEKALALLRSLMAEDTAALNAALREPTEITGKPRSLLSGRYKIQKVLGSGGFGRTYLAQDTQRPGNPLCVVKHLRPGRTDERFMQVARRLFNTEAEILEKLGRHDQIPLLLAYVEENREFYLVQEFIDGVSLSEELKRKHTEAEAIQLLREILEVLNFVHSHYVIHRDIKPDNIIRRASDRKLVLIDFGAVKQIQPQEAERTQGSTVVIGTMGYAPPEQLSGQPTLSSDIYAVGMIVLQALTGIKPRDLPRDPRTGEVDWQQCVTVSEGLAVVLNKMVKFNFSDRYPSAKEALQDARRLGTPAASVS,failed
